Target: HLA-A*02:01 (Homo sapiens, UniProt P04439, D140Y/D185E/D98H/E176V/E277Q/G131W/G231S/I119V/I121R/I166T/I218V/L300P/L318F/N151K/N90K/P208A/P217A/Q86G/Q94H/R138H/R169H/T345S)
Assay: MHC binding assay: UV-ligand exchange and β2m ELISA (peptide exchange yield, Table 7)
Details: binding of HLA-class I restricted peptides to HLA-A*02:01, UV-ligand exchange
Procedure, shortened: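 Peptide-MHC complexes made by UV-mediated exchange of a cleavable ligand for test peptide; exchange yield measured by ELISA detecting β2m of stabilized complexes captured on streptavidin, using refolded HLA-A*02:01/MLA-001 monomer standards (15-500 ng/ml). Samples diluted 100-fold; HRP anti-β2m, TMB, absorbance 450 nm.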

Substance	Peptide exchange (MHC class I binding score, peptide exchange yield)
200 (IMPTFDLTKV; listed as Homo sapiens) [compound 200]	+++ (≥50% = +++)
203 (FLFVDPELV; listed as Homo sapiens) [compound 203]	++ (≥20% = ++)
204 (SEWGSPHAAVP; listed as Homo sapiens) [compound 204]	+++ (≥50% = +++)
206 (GLDAFRIFL; listed as Homo sapiens) [compound 206]	++++ (≥75% = ++++)
207 (KLFETVEEL; listed as Homo sapiens) [compound 207]	+++ (≥50% = +++)
208 (HLNNDRNPL; listed as Homo sapiens) [compound 208]	++ (≥20% = ++)
210 (GLAGDNIYL; listed as Homo sapiens) [compound 210]	+++ (≥50% = +++)
211 (LLTTVLINA; listed as Homo sapiens) [compound 211]	+++ (≥50% = +++)
212 (MTLSEIHAV; listed as Homo sapiens) [compound 212]	++ (≥20% = ++)
213 (ILAVDGVLSV; listed as Homo sapiens) [compound 213]	+++ (≥50% = +++)
214 (ALFETLIQL; listed as Homo sapiens) [compound 214]	+++ (≥50% = +++)
215 (QIADIVTSV; listed as Homo sapiens) [compound 215]	++ (≥20% = ++)
216 (ALSTVTPRI; listed as Homo sapiens) [compound 216]	++ (≥20% = ++)
217 (LLWPSSVPA; listed as Homo sapiens) [compound 217]	+++ (≥50% = +++)
218 (SLTGANITV; listed as Homo sapiens) [compound 218]	+++ (≥50% = +++)
219 (GVVPTIQKV; listed as Homo sapiens) [compound 219]	++ (≥20% = ++)
220 (ALSELERVL; listed as Homo sapiens) [compound 220]	+++ (≥50% = +++)
221 (IMLNSVEEI; listed as Homo sapiens) [compound 221]	++ (≥20% = ++)
222 (LLTGVFAQL; listed as Homo sapiens) [compound 222]	++ (≥20% = ++)
223 (ALHPVQFYL; listed as Homo sapiens) [compound 223]	+++ (≥50% = +++)
224 (LLFDWSGTGRADA; listed as Homo sapiens) [compound 224]	+++ (≥50% = +++)
225 (FLPQPVPLSV; listed as Homo sapiens) [compound 225]	+++ (≥50% = +++)
226 (SLAGNLQEL; listed as Homo sapiens) [compound 226]	+++ (≥50% = +++)

Substance	Peptide exchange (MHC class I binding score, peptide exchange yield)
227 (SEMEELPSV; listed as Homo sapiens) [compound 227]	+ (≥10% = +)
228 (SLLELDGINLRL; listed as Homo sapiens) [compound 228]	+++ (≥50% = +++)
229 (YLYELEHAL; listed as Homo sapiens) [compound 229]	++ (≥20% = ++)
230 (KLLNMIFSI; listed as Homo sapiens) [compound 230]	+++ (≥50% = +++)
231 (LLDDIFIRL; listed as Homo sapiens) [compound 231]	+++ (≥50% = +++)
233 (SLFESLEYL; listed as Homo sapiens) [compound 233]	+++ (≥50% = +++)
234 (VLLNEILEQV; listed as Homo sapiens) [compound 234]	++++ (≥75% = ++++)
235 (SLLNQPKAV; listed as Homo sapiens) [compound 235]	++ (≥20% = ++)
236 (KMSELQTYV; listed as Homo sapiens) [compound 236]	+++ (≥50% = +++)
237 (ALLEQTGDMSL; listed as Homo sapiens) [compound 237]	+++ (≥50% = +++)
238 (HLQEKLQSL; listed as Homo sapiens) [compound 238]	++ (≥20% = ++)
239 (VIIKGLEEITV; listed as Homo sapiens) [compound 239]	+++ (≥50% = +++)
241 (KQFEGTVEI; listed as Homo sapiens) [compound 241]	+++ (≥50% = +++)
242 (KLQEEIPVL; listed as Homo sapiens) [compound 242]	+++ (≥50% = +++)
243 (GLAEFQENV; listed as Homo sapiens) [compound 243]	++ (≥20% = ++)
244 (NVAEIVIHI; listed as Homo sapiens) [compound 244]	+++ (≥50% = +++)
245 (ALLEEEEGV; listed as Homo sapiens) [compound 245]	++ (≥20% = ++)
246 (ALAGIVTNV; listed as Homo sapiens) [compound 246]	+++ (≥50% = +++)
247 (NLLIDDKGTIKL; listed as Homo sapiens) [compound 247]	++ (≥20% = ++)
248 (VLMQDSRLYL; listed as Homo sapiens) [compound 248]	+++ (≥50% = +++)
249 (YLYQILQGI; listed as Homo sapiens) [compound 249]	+++ (≥50% = +++)
250 (LMQDSRLYL; listed as Homo sapiens) [compound 250]	+++ (≥50% = +++)
251 (LLWGNLPEI; listed as Homo sapiens) [compound 251]	+++ (≥50% = +++)

Substance	Peptide exchange (MHC class I binding score, peptide exchange yield)
252 (SLMEKNQSL; listed as Homo sapiens) [compound 252]	++ (≥20% = ++)
253 (KLLAVIHEL; listed as Homo sapiens) [compound 253]	+++ (≥50% = +++)
254 (ALGDKFLLRV; listed as Homo sapiens) [compound 254]	++ (≥20% = ++)
255 (FLMKNSDLYGA; listed as Homo sapiens) [compound 255]	+++ (≥50% = +++)
256 (FLNDIFERI; listed as Homo sapiens) [compound 256]	+++ (≥50% = +++)
257 (KLIDHQGLYL; listed as Homo sapiens) [compound 257]	+++ (≥50% = +++)
258 (QLVQRVASV; listed as Homo sapiens) [compound 258]	++ (≥20% = ++)
259 (GPGIFPPPPPQP; listed as Homo sapiens) [compound 259]	+ (≥10% = +)
260 (ALNESLVEC; listed as Homo sapiens) [compound 260]	+++ (≥50% = +++)
261 (GLAALAVHL; listed as Homo sapiens) [compound 261]	+++ (≥50% = +++)
262 (LLLEAVWHL; listed as Homo sapiens) [compound 262]	+++ (≥50% = +++)
263 (SIIEYLPTL; listed as Homo sapiens) [compound 263]	+++ (≥50% = +++)
264 (TLHDQVHLL; listed as Homo sapiens) [compound 264]	++ (≥20% = ++)
265 (FLLDKPQDLSI; listed as Homo sapiens) [compound 265]	+++ (≥50% = +++)
266 (FLLDKPQDL; listed as Homo sapiens) [compound 266]	++ (≥20% = ++)
267 (YLLDMPLWYL; listed as Homo sapiens) [compound 267]	+++ (≥50% = +++)
268 (SLDKDIVAL; listed as Homo sapiens) [compound 268]	++ (≥20% = ++)
269 (GLLDCPIFL; listed as Homo sapiens) [compound 269]	++++ (≥75% = ++++)
270 (TLLTFFHEL; listed as Homo sapiens) [compound 270]	+++ (≥50% = +++)
271 (VLIEYNFSI; listed as Homo sapiens) [compound 271]	+++ (≥50% = +++)
272 (FVMEGEPPKL; listed as Homo sapiens) [compound 272]	++ (≥20% = ++)

Source: US9994628B2, “Peptides and combination of peptides for use in immunotherapy against various tumors” (IMMATICS BIOTECHNOLOGIES GMBH, priority 2015, dated 2018)
